Data on 39 variants can be found in the RNAGym collection of RNA variant scans (doi:10.7554/elife.80360).

To fix the notation:
B1: CPEB3 Ribozyme (parent)
chain: GGGGGCCACAGCAGAAGCGUUCACGUCGCGGCCCCUGUCAGAUUCUGGUGAAUCUGCGAAUUCUGCUGU

The variants in this data set derive from B1. The data set can be described thus: self-cleavage, relative activity (ratio to wild type); higher = more cleavage; co-transcriptional.
As for GGGGGCCACAGCAGAAGCGAUCACGUCGCGUCCCCUGUCAGAUUCUGGUGAAUCUGCGAAUUCUGCUGU, the self-cleavage is 0.17.
Regarding GGGGGCCACAGCAGAAGCGAUCACGUCGCGACCCCUGUCAGAUUCUGGUGAAUCUGCGAAUUCUGCUGU, the self-cleavage is 0.135.
GGGGGCCACAGCAGAAGCGAUCACGUCGCGCCCCCUGUCAGAUUCUGGUGAAUCUGCGAAUUCUGCUGU: the self-cleavage amounted to 0.0954.
The value for GGGGGCCACAGCAGAAGCGAUCACGUCGCGGCCCCUGUCAGAUUCUGGUGAAUCUGCGAAUUCUUCUGU was 0.19.
Regarding GGGGGCCACAGCAGAAGCGAUCACGUCGCGGCCCCUGUCAGAUUCUGGUGAAUCUGCGAAUUCUCCUGU, the self-cleavage is 0.113.
The value for GGGGGCCACAGCAGAAGCGAUCACGUCGCGGCCCCUGUCAGAUUCUGGUGAAUCUGCGCAUUCUGCUGU was 0.0876; that for GGGGGCCACAGCAGAAGCGAUCACGUCGCGGCCCCUGUCAGAUUCUGGUGAAUCUGCGGAUUCUGCUGU was 0.125; that for GGGGGCCACAGCAGAAGCGAUCACGUCGCGGCCCCUGUCAGAUUCUGGUGAAUCUGCGAAUUAUGCUGU was 0.129.
The value for GGGGGCCACAGCAGAAGCGAUCACGUCGCGGCCCCUGUCAGAUUCUGGUGAAUCUGCGAAUUGUGCUGU was 0.13; that for GGGGGCCACAGCAGAAGCGAUCACGUCGCGGCCCCUGUUAGAUUCUGGUGAAUCUGCGAAUUCUGCUGU was 0.125; that for GGGGGCCACAGCAGAAGCGAUCACGUCGCGGCCCCUGUAAGAUUCUGGUGAAUCUGCGAAUUCUGCUGU was 0.169.
The value for GGGGGCCACAGCAGAAGCGAUCACGUCGCGGCCCCUGUCAGAUUCUGGUGAAUCUGAGAAUUCUGCUGU was 0.195; that for GGGGGCCACAGCAGAAGCGAUCACGUCGCGGCCCCUGUCAGAUUCUGGUGAAUCUGGGAAUUCUGCUGU was 0.092; that for GGGGGCCACAGCAGAAGCGAUCACGUCGCGGCCCCUGUCAGAUUCUGGUGAAUCUGUGAAUUCUGCUGU was 0.152.
As to GGGGGCCACAGCAGAAGCGAUCACGUCGCGGCCCCUGUCAGAUUUUGGUGAAUCUGCGAAUUCUGCUGU, the self-cleavage was determined as 0.144.
The value for GGGGGCCACAGCAGAAGCGAUCACGUCGCGGCCCCUGUCAGAUUCUGGUGACUCUGCGAAUUCUGCUGU was 0.0922; that for GGGGGCCACAGCAGAAGCGAUCACGUCGCGGCCCCUGUCAGAUUCUGGUGAUUCUGCGAAUUCUGCUGU was 0.143.
The value for GGGGGCCACAGCAGAAGCGAUCACGUCGCGGCCCCUGUCAGAUUCUGGUGAGUCUGCGAAUUCUGCUGU was 0.117.
As to GGGGGCCACAGCAGAAGCGAUCACGUCGCGGCCCCUGUCAGAUUCUGAUGAAUCUGCGAAUUCUGCUGU, the self-cleavage amounted to 0.124.
The value for GGGGGCCACAGCAGAAGCGAUCACGUCGCUGCCCCUGUCAGAUUCUGGUGAAUCUGCGAAUUCUGCUGU was 0.109; that for GGGGGCCACAGCAGAAGCGAUCACGUCGCAGCCCCUGUCAGAUUCUGGUGAAUCUGCGAAUUCUGCUGU was 0.192; that for GGGGGCCACAGCAGAAGCGAUCACGUCGCCGCCCCUGUCAGAUUCUGGUGAAUCUGCGAAUUCUGCUGU was 0.141.
For the variant GGGGGCCACAGCAGAAGCGAUCACGUCGCGGCCCCUGUCAGAUUCUGGUGAAUCUUCGAAUUCUGCUGU, the self-cleavage turned out to be 0.217.
The value for GGGGGCCACAGCAGAAGCGAUCACGUCGCGGCCCCUGUCAGAUUCUGGUGAAUCUACGAAUUCUGCUGU was 0.184.
The value for GGGGGCCACAGCAGAAGCGAUCACGUCGCGGCCCCUGUCAGAUUCUGGUGAAUCUCCGAAUUCUGCUGU was 0.113; that for GGGGGCCACAGCAGAAGCGAUCACGUCGCGGCCCGUGUCAGAUUCUGGUGAAUCUGCGAAUUCUGCUGU was 0.183.
The value for GGGGGCCACAGCAGAAGCGAUCACGUCGCGGCCCAUGUCAGAUUCUGGUGAAUCUGCGAAUUCUGCUGU was 0.115; that for GGGGGCCACAGCAGAAGCUUUCACGUCGCGGCCCCUGUCAGAUUCUGGUGAAUCUGCGAAUUCUGCUGA was 0.739; that for GGGGGCCACAGCAGAAGCUUUCACGUCGCGGCCCCUGUCAGAUUCUGGUGAAUCUGCGAAUUCUGCUGC was 0.925.
As to GGGGGCCACAGCAGAAGCGAUCACGUCGCGGCCACUGUCAGAUUCUGGUGAAUCUGCGAAUUCUGCUGU, the self-cleavage was found to be 0.196.
The value for GGGGGCCACAGCAGAAGCGAUCACGUCGCGGCCUCUGUCAGAUUCUGGUGAAUCUGCGAAUUCUGCUGU was 0.0989.
Consider GGGGGCCACAGCAGAAGCGAUCACGUCGCGGCCGCUGUCAGAUUCUGGUGAAUCUGCGAAUUCUGCUGU, for which the self-cleavage turned out to be 0.196.
The value for GGGGGCCACAGCAGAAGCGAUCAAGUCGCGGCCCCUGUCAGAUUCUGGUGAAUCUGCGAAUUCUGCUGU was 0.203; that for GGGGGCCACAGCAGAAGCGAUCAUGUCGCGGCCCCUGUCAGAUUCUGGUGAAUCUGCGAAUUCUGCUGU was 0.0896.
The value for GGGGGCCACAGCAGAAGCUUUCACGUCGCGGCCCCUGUCAGAUUCUGGUGAAUCUGCGAAUUCGGCUGU was 0.192; that for GGGGGCCACAGCAGAAGCGAUCACGUCGCGGCCCCUGUCAGAUUCUAGUGAAUCUGCGAAUUCUGCUGU was 0.176; that for GGGGGCCACAGCAGAAGCGAUCACGUCGCGGCCCCUGUCAGAUUCUGGUGCAUCUGCGAAUUCUGCUGU was 0.151.
With GGGGGCCACAGCAGAAGCGAUCACGUCGCGGCCCCUGUCAGAUUCUGGUGGAUCUGCGAAUUCUGCUGU, the self-cleavage stood at 0.186.
The value for GGGGGCCACAGCAGAAGCGAUCACGUCGCGGCCCCUGUCAGAUUCUGGUGUAUCUGCGAAUUCUGCUGU was 0.153.
